Assay results as given in EP4628097A1 (Innovent Biologics (Suzhou) Co., Ltd., dated 2025).

Assays:
human VEGF165 [1] = molecular target: T1, human VEGF165 (human, UniProt P15692-4 27-191); assay: ELISA, relative binding activity; 120 mg/mL formula, T0
T1 construct: all are put under this molecule; also called VEGF A; VEGFA

human Ang2 [2] = molecular target: T2, human Ang2 (human, UniProt O15123 19-496, limits assumed); assay: as above
T2 construct: Bought proteins; also called hAng2-biotin; Ang2-Bio (Sino)
T2 sequence (looked up): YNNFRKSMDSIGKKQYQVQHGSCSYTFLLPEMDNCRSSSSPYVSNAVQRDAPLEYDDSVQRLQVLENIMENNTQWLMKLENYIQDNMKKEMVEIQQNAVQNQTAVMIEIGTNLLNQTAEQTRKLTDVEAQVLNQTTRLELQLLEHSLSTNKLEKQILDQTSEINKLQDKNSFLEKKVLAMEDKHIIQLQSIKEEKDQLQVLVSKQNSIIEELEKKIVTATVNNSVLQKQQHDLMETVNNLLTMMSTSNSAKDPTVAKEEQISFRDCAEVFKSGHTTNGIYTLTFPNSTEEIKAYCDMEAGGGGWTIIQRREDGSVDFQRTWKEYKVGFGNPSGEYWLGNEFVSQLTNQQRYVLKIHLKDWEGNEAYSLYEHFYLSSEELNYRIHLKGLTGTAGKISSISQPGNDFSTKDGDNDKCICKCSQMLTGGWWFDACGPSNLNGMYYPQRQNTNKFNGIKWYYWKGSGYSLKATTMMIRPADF

human VEGF165 [3] = molecular target: T1, human VEGF165; assay: ELISA, relative binding activity; final formula 40 mg/mL, T0
human Ang2 [4] = molecular target: T2, human Ang2; assay: as above
human VEGF165 [5] = molecular target: T1, human VEGF165; assay: ELISA, relative binding activity; 120 mg/mL formula, 25 C, 2M
human Ang2 [6] = molecular target: T2, human Ang2; assay: as above
human VEGF165 [7] = molecular target: T1, human VEGF165; assay: ELISA, relative binding activity; 120 mg/mL formula, 2-8 C, 6M
human VEGF165 [8] = molecular target: T1, human VEGF165; assay: ELISA, relative binding activity; final formula 40 mg/mL, 25 C, 3M
human Ang2 [9] = molecular target: T2, human Ang2; assay: as above
human VEGF165 [10] = molecular target: T1, human VEGF165; assay: ELISA, relative binding activity; final formula 40 mg/mL, 2-8 C, 12M
human Ang2 [11] = molecular target: T2, human Ang2; assay: as above
human VEGF165 [12] = molecular target: T1, human VEGF165; assay: ELISA, relative binding activity; IEX04-012 about 40 mg/mL in F6, 40 C, 1 week
human Ang2 [13] = molecular target: T2, human Ang2; assay: as above
human VEGF165 [14] = molecular target: T1, human VEGF165; assay: ELISA, relative binding activity; IEX04-012 about 40 mg/mL in F7, 40 C, 1 week
human Ang2 [15] = molecular target: T2, human Ang2; assay: as above
human VEGF165 [16] = molecular target: T1, human VEGF165; assay: ELISA, relative binding activity; IEX04-012 about 40 mg/mL in F1, 40 C, 0 weeks
human Ang2 [17] = molecular target: T2, human Ang2; assay: as above
human VEGF165 [18] = molecular target: T1, human VEGF165; assay: ELISA, relative binding activity; IEX04-012 about 40 mg/mL in F5, 40 C, 0 weeks
human Ang2 [19] = molecular target: T2, human Ang2; assay: as above
human VEGF165 [20] = molecular target: T1, human VEGF165; assay: ELISA, relative binding activity; IEX04-012 about 40 mg/mL in F6, 40 C, 2 weeks
human Ang2 [21] = molecular target: T2, human Ang2; assay: as above
human VEGF165 [22] = molecular target: T1, human VEGF165; assay: ELISA, relative binding activity; IEX04-012 about 40 mg/mL in F7, 40 C, 0 weeks
human Ang2 [23] = molecular target: T2, human Ang2; assay: as above
human VEGF165 [24] = molecular target: T1, human VEGF165; assay: ELISA, relative binding activity; IEX04-012 about 40 mg/mL in F8, 40 C, 2 weeks
human Ang2 [25] = molecular target: T2, human Ang2; assay: as above
human VEGF165 [26] = molecular target: T1, human VEGF165; assay: ELISA, relative binding activity; IEX04-012 about 40 mg/mL in F9, 40 C, 0 weeks
human Ang2 [27] = molecular target: T2, human Ang2; assay: as above

T1 sequence (P15692 other isoform, or with tags, fused parts or gaps limits assumed): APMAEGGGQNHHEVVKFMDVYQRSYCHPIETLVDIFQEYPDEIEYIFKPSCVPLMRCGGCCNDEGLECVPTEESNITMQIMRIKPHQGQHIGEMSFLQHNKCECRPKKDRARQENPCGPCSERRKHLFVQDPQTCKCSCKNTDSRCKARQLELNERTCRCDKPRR

B1: IEX04-012 (bispecific antibody)
chain: DIQLTQSPSSLSASVGDRVTITCSASQDISNYLNWYQQKPGKAPKVLIYFTSSLHSGVPSRFSGSGSGTDFTLTISSLQPEDFATYYCQQYSTVPWTFGCGTKVEIKGGGGSGGGGSGGGGSGGGGSEVQLVESGGGLVQPGGSLRLSCAASGYDFTHYGMNWVRQAPGKCLEWVGWINTYTGEPTYAADFKRRFTFSLDTSKSTAYLQMNSLRAEDTAVYYCAKYPYYYGTSHWYFDVWGQGTLVTVSSGGGGSGGGGSGGGGSEVQLLESGGGLVQPGGSLRLSCAASGFALDYYAIGWFRQAPGKGLEGVSCISSGEGSTYYADSVKGRFTISRDNSKNTVYLQMNSLRAEDTAVYYCATDSRGDDVACEGLRRNEYDYWGQGTLVTVSS
Relative binding Activity to VEGF A (ELISA, %) (human VEGF165 [1]): 101%
Relative binding Activity to Ang2 (ELISA, %) (human Ang2 [2]): 92%
Relative binding Activity to VEGF A (ELISA, %) (human VEGF165 [3]): 103%
Relative binding Activity to Ang2 (ELISA, %) (human Ang2 [4]): 95%
Relative binding Activity to VEGF A (ELISA, %) (human VEGF165 [5]): 92%
Relative binding Activity to Ang2 (ELISA, %) (human Ang2 [6]): 84%
Relative binding Activity to VEGF A (ELISA, %) (human VEGF165 [7]): 99%
Relative binding Activity to VEGF A (ELISA, %) (human VEGF165 [8]): 96%
Relative binding Activity to Ang2 (ELISA, %) (human Ang2 [9]): 85%
Relative binding Activity to VEGF A (ELISA, %) (human VEGF165 [10]): 100%
Relative binding Activity to Ang2 (ELISA, %) (human Ang2 [11]): 96%
Relative binding Activity to VEGF (ELISA, %) (human VEGF165 [12]): 98%
Relative binding Activity to Ang2 (ELISA, %) (human Ang2 [13]): 96%
Relative binding Activity to VEGF (ELISA, %) (human VEGF165 [14]): 102%
Relative binding Activity to Ang2 (ELISA, %) (human Ang2 [15]): 90%
Relative binding Activity to VEGF (ELISA, %) (human VEGF165 [16]): 100%
Relative binding Activity to Ang2 (ELISA, %) (human Ang2 [17]): 100%
Relative binding Activity to VEGF (ELISA, %) (human VEGF165 [18]): 100%
Relative binding Activity to Ang2 (ELISA, %) (human Ang2 [19]): 100%
Relative binding Activity to VEGF (ELISA, %) (human VEGF165 [20]): 99%
Relative binding Activity to Ang2 (ELISA, %) (human Ang2 [21]): 89%
Relative binding Activity to VEGF (ELISA, %) (human VEGF165 [22]): 100%
Relative binding Activity to Ang2 (ELISA, %) (human Ang2 [23]): 100%
Relative binding Activity to VEGF (ELISA, %) (human VEGF165 [24]): 102%
Relative binding Activity to Ang2 (ELISA, %) (human Ang2 [25]): 91%
Relative binding Activity to VEGF (ELISA, %) (human VEGF165 [26]): 100%
Relative binding Activity to Ang2 (ELISA, %) (human Ang2 [27]): 100%
